Assay results taken from patent US20140107021A1 (priority 2010, published 2014).
Where two headings read alike, the source gives them in different places. Numbered stars: 1 amine (or outer) side, 2 acyl side, 3 side chain; on linkers, the order of the positions; unused ones are H or OH. Bridge positions count the residues as written; N and C are the ends. Square brackets hold non-standard residues; d marks the D form. Side chains are listed from the residue outwards. Ends that are not written are not given here. Peptide text beside a SMILES is read from it. γGlu = O=C(O)[C@H](CCC(=O)[*:2])N[*:1]; C16 acyl = 16 carbon fatty acyl group; PEG40kDa = 40 kDa polyethylene glycol; Ac‑Cys = acetylated cysteine; Aib = CC(C)(N)C(=O)O

Tests used:
glucagon receptor [1] = target: T1, glucagon receptor (Homo sapiens, UniProt P47871); test: glucagon receptor binding; design: expressed in transfected cells; host or cells: HEK293
glucagon receptor [2] = target: T1, glucagon receptor; test: cAMP induction at the glucagon receptor (agonist activity), luciferase reporter assay in HEK293 cells; assay type: cell-based; design: expressed in transfected cells; host or cells: HEK293; conditions: for EC50 / GR relative activity: Table 5; for EC50: read-out: GR EC50; for GR relative activity: relative to standard
Excerpt: (§1) HEK293 cells co-transfected with the receptor and luciferase gene linked to a cAMP responsive element were employed for the bioassay.
(§2) All EC50s and IC50s are reported in the following examples in nM, unless indicated otherwise.

GIP receptor = target: T2, GIP receptor (Homo sapiens, UniProt P48546); test: cAMP induction at the GIP receptor (agonist activity), luciferase reporter assay in HEK293 cells; assay type: cell-based; conditions: for GIPR relative activity: Table 5, relative to standard
T2 construct: expressed in transfected cells; host or cells: HEK293
T2 sequence (P48546 22-466): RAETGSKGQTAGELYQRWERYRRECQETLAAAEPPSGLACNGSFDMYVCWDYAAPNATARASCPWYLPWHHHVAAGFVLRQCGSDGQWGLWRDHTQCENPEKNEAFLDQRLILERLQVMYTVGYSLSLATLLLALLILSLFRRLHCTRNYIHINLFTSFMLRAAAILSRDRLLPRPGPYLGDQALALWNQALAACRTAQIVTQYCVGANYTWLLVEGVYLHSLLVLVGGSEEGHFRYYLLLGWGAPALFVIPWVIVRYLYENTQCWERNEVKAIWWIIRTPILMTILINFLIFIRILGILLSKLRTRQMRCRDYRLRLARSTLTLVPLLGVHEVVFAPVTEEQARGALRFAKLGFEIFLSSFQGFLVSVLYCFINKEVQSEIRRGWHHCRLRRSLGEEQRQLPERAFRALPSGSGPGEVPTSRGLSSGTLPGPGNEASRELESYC
Excerpt: as §1, §2

GLP-1 receptor = target: T3, GLP-1 receptor (Homo sapiens, UniProt P43220); test: cAMP induction at the GLP-1 receptor (agonist activity), firefly luciferase reporter assay in HEK293 cells; assay type: cell-based; conditions: for GLP-1R relative activity: Table 5, relative to standard
T3 construct: expressed in transfected cells; host or cells: HEK293
Excerpt: as §1, §2

[3] = Table E, read-out: Receptor Binding IC50
[4] = Table G, average ±STD of at least three experiments, same values as receptor binding in Table I, read-out: IC50
[5] = Table 7, relative to the native ligand of the receptor

T1 sequence (P47871 26-477): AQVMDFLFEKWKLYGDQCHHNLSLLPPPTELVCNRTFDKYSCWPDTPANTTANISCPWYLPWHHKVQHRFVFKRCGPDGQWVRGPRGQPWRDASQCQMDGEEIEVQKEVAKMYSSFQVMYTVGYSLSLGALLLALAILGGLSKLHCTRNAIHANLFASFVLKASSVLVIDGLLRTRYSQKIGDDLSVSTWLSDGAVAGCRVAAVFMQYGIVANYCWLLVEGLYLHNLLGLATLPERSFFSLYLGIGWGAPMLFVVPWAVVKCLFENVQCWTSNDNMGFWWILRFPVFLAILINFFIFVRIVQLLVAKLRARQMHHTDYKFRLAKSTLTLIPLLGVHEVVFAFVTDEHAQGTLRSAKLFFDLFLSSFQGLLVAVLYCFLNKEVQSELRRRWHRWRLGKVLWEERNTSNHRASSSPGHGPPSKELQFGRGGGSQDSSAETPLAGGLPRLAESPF
T3 sequence (P43220 24-463): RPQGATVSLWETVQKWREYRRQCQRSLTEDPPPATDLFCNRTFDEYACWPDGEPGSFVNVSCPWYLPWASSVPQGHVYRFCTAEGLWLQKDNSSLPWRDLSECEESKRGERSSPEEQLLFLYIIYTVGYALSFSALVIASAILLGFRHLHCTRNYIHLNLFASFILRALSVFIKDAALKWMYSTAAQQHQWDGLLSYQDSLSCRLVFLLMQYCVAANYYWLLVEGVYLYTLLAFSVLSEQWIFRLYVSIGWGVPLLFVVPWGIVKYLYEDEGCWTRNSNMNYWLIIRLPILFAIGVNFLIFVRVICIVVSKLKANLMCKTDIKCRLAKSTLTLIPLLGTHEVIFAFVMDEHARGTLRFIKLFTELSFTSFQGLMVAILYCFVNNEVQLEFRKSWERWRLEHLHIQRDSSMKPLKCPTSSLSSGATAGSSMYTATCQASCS

Molecule | EC50 (glucagon receptor [2]) [nM] | GR relative activity (glucagon receptor [2]) [%] | GIPR relative activity (GIP receptor) | GLP-1R relative activity (GLP-1 receptor) [%] | further results
CC(C)C[C@H](NC(=O)[C@H](Cc1ccc(O)cc1)NC(=O)[C@H](CCCCN)NC(=O)[C@H](CO)NC(=O)[C@H](Cc1ccc(O)cc1)NC(=O)[C@H](CCS(=O)(=O)O)NC(=O)[C@H](CO)NC(=O)[C@@H](NC(=O)[C@H](Cc1ccccc1)NC(=O)[C@@H](NC(=O)CNC(=O)[C@H](CCC(N)=O)NC(=O)[C@@H](N)CO)[C@@H](C)O)[C@@H](C)O)C(=O)N[C@@H](CC(=O)O)C(=O)N[C@@H](CO)C(=O)N[C@@H](CCCNC(=N)N)C(=O)N[C@@H](CCCNC(=N)N)C(=O)N[C@@H](C)C(=O)N[C@@H](CCC(N)=O)C(=O)N[C@@H](CC(=O)O)C(=O)N[C@@H](Cc1ccccc1)C(=O)N[C@H](C(=O)N[C@@H](CCC(N)=O)C(=O)N[C@@H](Cc1ccccc1)C(=O)N[C@@H](CC(C)C)C(=O)N[C@@H](CC(C)C)C(=O)N[C@@H](CC(N)=O)C(=O)N[C@H](C(N)=O)[C@@H](C)O)C(C)C [[desIIis^1, hCys^9(SO3—), Phe^25, Leu^27]Glucagon-NH2] (HELM PEPTIDE1{S.Q.G.T.F.T.S.[O=C([C@H](CCS(=O)(=O)O)N[*:1])[*:2]].Y.S.K.Y.L.D.S.R.R.A.Q.D.F.V.Q.F.L.L.N.T.[am]}$$$$V2.0; N-terminus assumed) | – | – | – | – | IC50 (glucagon receptor [1]; [3]): 13.9 ± 0.37 nM
CSCC[C@H](NC(=O)[C@H](CC(C)C)NC(=O)[C@H](Cc1c[nH]c2ccccc12)NC(=O)[C@H](CCC(N)=O)NC(=O)[C@@H](NC(=O)[C@H](Cc1ccccc1)NC(=O)[C@H](CC(=O)O)NC(=O)[C@H](CCC(N)=O)NC(=O)[C@H](C)NC(=O)[C@H](CCCNC(=N)N)NC(=O)[C@H](CCCNC(=N)N)NC(=O)[C@H](CO)NC(=O)[C@H](CC(=O)O)NC(=O)[C@H](CC(C)C)NC(=O)[C@H](Cc1ccc(O)cc1)NC(=O)[C@H](CCCCN)NC(=O)[C@H](CO)NC(=O)[C@H](Cc1ccc(O)cc1)NC(=O)[C@H](CCS(=O)(=O)O)NC(=O)[C@H](CO)NC(=O)[C@@H](NC(=O)[C@H](Cc1ccccc1)NC(=O)[C@@H](NC(=O)CNC(=O)[C@H](CCC(N)=O)NC(=O)[C@@H](N)CO)[C@@H](C)O)[C@@H](C)O)C(C)C)C(=O)N[C@@H](CC(N)=O)C(=O)N[C@H](C(N)=O)[C@@H](C)O [[hCys^9(SO3H)]Glucagon(aa2-29)-NH2] | – | – | – | – | IC50 (glucagon receptor [1]; Table H, same values as receptor binding in Table I, read-out: IC50): 13.2 ± 1 nM
H-LTFTSEYSKYLDSRRAQDFVQWLMNT-NH2 [[Leu^4, Glu^9]Glucagon(aa4-29)-NH2] | – | – | – | – | IC50 (glucagon receptor [1]; [4]): 36.4 ± 8.69 nM
Q3K16AIB20K10(rErE-C16) (Y[Aib]QGTFTSDK([γGlu-γGlu-C16 acyl])SIYLDKQAA[Aib]EFVNWLLAGGPSSGAPPPS-NH2) [MT-384] | – | – | – | – | % Relative Activity at GR (glucagon receptor [2]; [5]): 228%; % Relative Activity at GIPR (GIP receptor; [5]): 808%; % Relative Activity GLP-1R (GLP-1 receptor; [5]): 349%
SQGTTSDYSKYLDSRRAQDFVQWLMNT-NH2 [[desHis^1, desPhe^6]Glucagon-NH2] | – | – | – | – | IC50 (glucagon receptor [1]; [3]): 130 ± 44.9 nM
TSEYSKYLDSRRAQDFVQWLMNT-NH2 [[Glu^9]Glucagon(aa7-29)-NH2] | – | – | – | – | IC50 (glucagon receptor [1]; [4]): > 10000 nM
Y1Aib2I7I12K16Q17A18Aib20E21N24-LAG27-29-CEX-K (YXQGTFISDYSIYLDKQAAXEFVNWLLAGGPSSGAPPPSK; HELM PEPTIDE1{Y.[Aib].Q.G.T.F.I.S.D.Y.S.I.Y.L.D.K.Q.A.A.[Aib].E.F.V.N.W.L.L.A.G.G.P.S.S.G.A.P.P.P.S.K.[am]}$$$$V2.0; N-terminus assumed; SMILES CC[C@H](C)[C@H](NC(=O)[C@H](CO)NC(=O)[C@H](Cc1ccc(O)cc1)NC(=O)[C@H](CC(=O)O)NC(=O)[C@H](CO)NC(=O)[C@@H](NC(=O)[C@H](Cc1ccccc1)NC(=O)[C@@H](NC(=O)CNC(=O)[C@H](CCC(N)=O)NC(=O)C(C)(C)NC(=O)[C@@H](N)Cc1ccc(O)cc1)[C@@H](C)O)[C@@H](C)CC)C(=O)N[C@@H](Cc1ccc(O)cc1)C(=O)N[C@@H](CC(C)C)C(=O)N[C@@H](CC(=O)O)C(=O)N[C@@H](CCCCN)C(=O)N[C@@H](CCC(N)=O)C(=O)N[C@@H](C)C(=O)N[C@@H](C)C(=O)NC(C)(C)C(=O)N[C@@H](CCC(=O)O)C(=O)N[C@@H](Cc1ccccc1)C(=O)N[C@H](C(=O)N[C@@H](CC(N)=O)C(=O)N[C@@H](Cc1c[nH]c2ccccc12)C(=O)N[C@@H](CC(C)C)C(=O)N[C@@H](CC(C)C)C(=O)N[C@@H](C)C(=O)NCC(=O)NCC(=O)N1CCC[C@H]1C(=O)N[C@@H](CO)C(=O)N[C@@H](CO)C(=O)NCC(=O)N[C@@H](C)C(=O)N1CCC[C@H]1C(=O)N1CCC[C@H]1C(=O)N1CCC[C@H]1C(=O)N[C@@H](CO)C(=O)N[C@@H](CCCCN)C(N)=O)C(C)C) [MT-357] | – | – | – | – | % Relative Activity at GR (glucagon receptor [2]; Table 8): 170%; % Relative Activity at GIPR (GIP receptor; Table 8): 198%; % Relative Activity GLP-1R (GLP-1 receptor; Table 8): 0.81%
mt-217: lactam 16-20 glucagon analog, Lys24 carrying Ala spacer, acetylated Cys and 40 kDa PEG; SEQ ID NO: 19 (Y[Aib]QGTFTSDYSIYLDEQAAKEFVK([Ala-Ac‑Cys-PEG40kDa])FLLAGGPSSGAPPPS-NH2; lactam 16-20) | 13.9 | 0.82 | 0.20% | 11.26 | –
mt-218: as mt-217 with Glu as the amino acid spacer; SEQ ID NO: 20 (Y[Aib]QGTFTSDYSIYLDEQAAKEFVK([Glu-Ac‑Cys-PEG40kDa])FLLAGGPSSGAPPPS-NH2; lactam 16-20) | 16.3 | 0.70 | 0.13% | 7.40 | –
mt-219: as mt-217 with Arg as the amino acid spacer; SEQ ID NO: 21 (Y[Aib]QGTFTSDYSIYLDEQAAKEFVK([Arg-Ac‑Cys-PEG40kDa])FLLAGGPSSGAPPPS-NH2; lactam 16-20) | 17.6 | 0.65 | .31% | 16.56 | –
mt-220: as mt-217 with Phe as the amino acid spacer; SEQ ID NO: 22 (Y[Aib]QGTFTSDYSIYLDEQAAKEFVK([Phe-Ac‑Cys-PEG40kDa])FLLAGGPSSGAPPPS-NH2; lactam 16-20) | 9.67 | 1.18 | 0.19% | 13.89 | –
mt-225: as mt-217 but modified Lys at position 40 and Asn at position 24; SEQ ID NO: 359 (Y[Aib]QGTFTSDYSIYLDEQAAKEFVNWLLAGGPSSGAPPPSK([Ala-Ac‑Cys-PEG40kDa])-NH2; lactam 16-20) | 2.71 | 1.99 | 0.90% | 29.59 | –
mt-226: as mt-218 but modified Lys at position 40 and Asn at position 24; SEQ ID NO: 23 (Y[Aib]QGTFTSDYSIYLDEQAAKEFVNWLLAGGPSSGAPPPSK([Glu-Ac‑Cys-PEG40kDa])-NH2; lactam 16-20) | 3.46 | 1.56 | 1.16% | 29.90 | –
mt-227: as mt-219 but modified Lys at position 40 and Asn at position 24; SEQ ID NO: 360 (Y[Aib]QGTFTSDYSIYLDEQAAKEFVNWLLAGGPSSGAPPPSK([Arg-Ac‑Cys-PEG40kDa])-NH2; lactam 16-20) | 4.24 | 1.27 | 1.29% | 36.25 | –
mt-228: as mt-220 but modified Lys at position 40 and Asn at position 24; SEQ ID NO: 24 (Y[Aib]QGTFTSDYSIYLDEQAAKEFVNWLLAGGPSSGAPPPSK([Phe-Ac‑Cys-PEG40kDa])-NH2; lactam 16-20) | 5.36 | 1.01 | 0.75% | 19.86 | –
